For this assay, the target named is HCMV glycoprotein gO (virion, strain TB40) (human cytomegalovirus strain TB40 (endogenous in virions)).

Substance “recombinant human PDGFR-α-Fc fusion protein (from UniProt P16234)” gave an infection of HFF with wt TB40-luc virus pre-incubated with PDGFR-α-Fc (one hour at 4°C; luciferase assay), residual infection; blocks gH/gL/gO of virions with PDGFR-α on HFF of 0.5%.
